This note sets out measurements from article PMC3534021, “Structure of the TPR Domain of AIP: Lack of Client Protein Interaction with the C-Terminal α-7 Helix of the TPR Domain of AIP Is Sufficient for Pituitary Adenoma Predisposition” (PLoS ONE, 2012).

The target in experiment [1] is T1, TPR domain (residues 166–330) of human AIP, WT (Homo sapiens, UniProt O00170).
T1 construct: The TPR domain (residues 166–330) of human AIP; His tag (PreScission cleavable) (cleaved yes); made in house
T1 sequence (O00170 166-330): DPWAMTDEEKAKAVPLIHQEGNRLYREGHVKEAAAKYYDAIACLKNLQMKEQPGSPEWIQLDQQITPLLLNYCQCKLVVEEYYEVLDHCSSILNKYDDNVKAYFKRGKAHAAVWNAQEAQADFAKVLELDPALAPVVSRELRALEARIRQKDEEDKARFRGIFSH
Kind of experiment: Isothermal titration calorimetry, wild-type AIP TPR-domain. The format is binding. As to conditions: ITC, 20 mM Tris pH 7.5, 5 mM NaCl, 30°C; for N (stoichiometry): first value where two are printed. As to the method:
(§1) The TPR domain (residues 166–330) of human AIP was expressed as a PreScission cleavable His-tagged protein from pTWO-E (pET-17b derived; personal communication, A. W. Oliver, Sussex University). The TPR domain was purified by talon-affinity chromatography (Clontech, Oxford, UK), then concentrated and desalted on a HIPrep 26/10 desalting column equilibrated in 20 mM Tris pH 7.5 containing 1 mM EDTA. The sample was then cleaved overnight with GST-tagged PreScision protease. The cleaved protein was subsequently passed through a GST column equilibrated in 20 mM Tris pH 7.5, 1 mM EDTA and 150 mM NaCl and then through a second Talon column to remove any remaining uncleaved protein. The flow through was then concentrated and subjected to superdex 75HR gel-filtration chromatography equilibrated in 20 mM Tris pH 7.5, 1 mM EDTA, 1 mM DTT and 500 mM NaCl. Pure TPR domain were concentrated and then desalted on a HIPrep 26/10 column equilibrated in 20 mM Tris pH 7.5 containing 1 mM EDTA. The protein was stored frozen at 2 mg ml^−1.
The heat of interaction was measured on an ITC200 microcalorimeter (Microcal), with a cell volume of 200 µL, under the same buffer conditions (20 mM Tris, pH 7.5, containing 5 mM NaCl) at 30°C. Twenty 1.9 µL aliquots of AIP TPR-domain at 350 µM were injected into 30 µM of human HSP90β. For peptide interactions twenty 1.9 µL aliquots of peptide ranging from 350 to 600 µM were injected into 30 µM of AIP TPR-domain. Heats of dilution were determined in a separate experiment by diluting protein or peptide into buffer, and the corrected data were fitted using a non-linear least-squares curve-fitting algorithm (Microcal Origin) with three floating variables: stoichiometry, binding constant and change in enthalpy of interaction. ATPase assays were previously described [44]–[46].
(In general: Isothermal titration calorimetry measures the heat released or taken up as one component is titrated into another.)

For experiment [2], the target named is AIP TPR-domain E192R mutant. The experiment is described as follows: Isothermal titration calorimetry, E192R AIP TPR-domain. To be noted: ITC, 20 mM Tris pH 7.5, 5 mM NaCl, 30°C, 350 µM AIP TPR injected into 30 µM HSP90β. In kind it is binding, human. The method, then: as §1, with “Pure TPR domain were concentrated and then desalted on a HIPrep 26/10 column equilibrated in 20 mM Tris pH 7.5 containing 1 mM EDTA. The protein was stored frozen at 2 mg ml^−1.” left out
The heat of interaction was measured on an ITC200 microcalorimeter (Microcal), with a cell volume of 200 µL, under the same buffer conditions (20 mM Tris, pH 7.5, containing 5 mM NaCl) at 30°C. […] Heats of dilution were determined in a separate experiment by diluting protein or peptide into buffer, and the corrected data were fitted using a non-linear least-squares curve-fitting algorithm (Microcal Origin) with three floating variables: stoichiometry, binding constant and change in enthalpy of interaction. […]

The substance “FL-hHSP90β: full-length human HSP90β chaperone protein” returned a ΔH in experiment [1] of -4.554 kcal/mol. The ΔS in experiment [1] is listed as 7.29 Cal/mol/deg. Moreover, the “N (stoichiometry)” value in experiment [1] (for HSP90β given as AIP:HSP90) was found to be 0.30; in experiment [1] (for HSP90β given as AIP:HSP90, listed as HSP90β), 0.3. In addition, the results for the Kd in experiment [1] (peptide 350-600 µM injected into 30 µM AIP TPR-domain (for HSP90β: 350 µM AIP TPR into 30 µM HSP90β)) and in experiment [2] were 13.3 ± 1.8 µM and 11.1 ± 1.3 µM, respectively.

Broadly, the Kd is a measure of binding affinity in units of concentration. A higher Kd goes with weaker binding.
